US20250115678A1 (AstraZeneca / MedImmune, published 2025)
Numbering of substitutions follows the chain as printed.

T1: human EphB6 on transiently transfected Ad293 cells (human, UniProt O15197 32-1021)
T1 construct: whole, on cells; also called EphB6-expressing cells
T1 sequence (looked up): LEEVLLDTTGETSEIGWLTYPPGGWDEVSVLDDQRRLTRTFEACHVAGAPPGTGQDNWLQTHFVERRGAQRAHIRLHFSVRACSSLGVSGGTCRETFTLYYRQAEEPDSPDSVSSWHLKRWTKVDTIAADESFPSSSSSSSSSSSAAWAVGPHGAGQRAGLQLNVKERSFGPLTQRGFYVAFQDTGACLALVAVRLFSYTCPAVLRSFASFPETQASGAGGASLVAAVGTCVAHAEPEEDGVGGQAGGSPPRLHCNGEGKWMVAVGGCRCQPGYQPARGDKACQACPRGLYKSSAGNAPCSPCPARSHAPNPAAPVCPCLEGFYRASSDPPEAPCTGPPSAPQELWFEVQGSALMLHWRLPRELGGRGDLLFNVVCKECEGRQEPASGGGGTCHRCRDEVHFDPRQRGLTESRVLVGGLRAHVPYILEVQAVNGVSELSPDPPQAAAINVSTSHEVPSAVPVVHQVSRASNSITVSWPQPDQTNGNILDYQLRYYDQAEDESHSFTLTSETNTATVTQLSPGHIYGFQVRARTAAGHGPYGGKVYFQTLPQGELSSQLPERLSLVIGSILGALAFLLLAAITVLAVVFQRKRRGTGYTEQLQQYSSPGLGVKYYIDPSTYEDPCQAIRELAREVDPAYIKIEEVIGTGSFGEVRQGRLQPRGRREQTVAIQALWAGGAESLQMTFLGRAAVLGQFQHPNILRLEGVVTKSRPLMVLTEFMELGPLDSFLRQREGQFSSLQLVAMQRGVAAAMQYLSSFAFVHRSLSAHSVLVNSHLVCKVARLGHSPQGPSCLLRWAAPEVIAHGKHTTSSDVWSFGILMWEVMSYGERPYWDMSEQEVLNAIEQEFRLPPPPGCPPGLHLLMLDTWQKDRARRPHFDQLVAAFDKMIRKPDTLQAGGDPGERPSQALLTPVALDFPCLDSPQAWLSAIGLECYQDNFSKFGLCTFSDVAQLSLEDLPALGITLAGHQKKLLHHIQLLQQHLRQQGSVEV

T2: human LRRC15 recombinant extracellular domain protein (human, UniProt Q8TF66 22-538)
T2 construct: extracellular domain; also called LRRC15 human
T2 sequence (looked up): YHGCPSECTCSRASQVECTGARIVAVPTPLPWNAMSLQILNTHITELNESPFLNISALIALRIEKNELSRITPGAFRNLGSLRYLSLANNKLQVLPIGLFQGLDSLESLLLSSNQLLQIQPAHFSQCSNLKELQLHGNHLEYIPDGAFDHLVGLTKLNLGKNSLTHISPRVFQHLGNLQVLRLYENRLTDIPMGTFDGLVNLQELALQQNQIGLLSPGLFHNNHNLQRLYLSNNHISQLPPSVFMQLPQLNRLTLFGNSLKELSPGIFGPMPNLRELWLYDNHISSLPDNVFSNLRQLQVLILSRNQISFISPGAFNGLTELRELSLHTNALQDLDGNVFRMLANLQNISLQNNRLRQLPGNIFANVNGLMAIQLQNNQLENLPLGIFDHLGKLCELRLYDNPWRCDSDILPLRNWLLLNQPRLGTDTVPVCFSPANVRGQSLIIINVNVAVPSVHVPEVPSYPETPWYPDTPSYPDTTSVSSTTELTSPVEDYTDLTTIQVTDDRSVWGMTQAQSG

B1: TPP-46959 (other)
light: not shown
heavy 1: EVQLVQSGAEVKKPGASVKVSCKASGYKFSSYWIEWVKQAPGQGLEWIGEILPGSDTTNYAQKFQDRVTFTSDTSISTAYMELSRLRSDDTAVYYCARDRGNYRAWFGYWGQGTLVTVSSASTKGPSVFPLAPSSKSTSGGTAALGCLVKDYFPEPVTVSWNSGALTSGVHTFPAVLQSSGLYSLSSVVTVPSSSLGTQTYICNVNHKPSNTKVDKRVEPKSCDKTGGSEVQLVESGGGLVQPGGSLRLSCVASGDVHKINFLGWYRQAPGKEREKVAHISIGDQTDYADSAKGRFTISRDESKNMVYLQMNSLKPEDTAVYFCRAFSRIYPYDYWGQGTLVTVSSGGGGSTHTCPPCPAPPVAGPSVFLFPPKPKDTLMISRTPEVTCVVVDVKHEDPEVKFNWYVDGVEVHNAKTKPREEQYNSTYRVVSVLTVLHQDWLNGKEYKCKVSNKALPAPIEKTISKAKGQPREPQVCTLPPSREEMTKNQVSLSCAVKGFYPSDIAVEWESNGQPENNYKTTPPVLDSDGSFFLVSKLTVDKSRWQQGNVFSCSVMHEALHNRFTQKSLSLSPGK
heavy 2: EVQLVQSGAEVKKPGASVKVSCKASGYKFSSYWIEWVKQAPGQGLEWIGEILPGSDTTNYAQKFQDRVTFTSDTSISTAYMELSRLRSDDTAVYYCARDRGNYRAWFGYWGQGTLVTVSSASTKGPSVFPLAPSSKSTSGGTAALGCLVKDYFPEPVTVSWNSGALTSGVHTFPAVLQSSGLYSLSSVVTVPSSSLGTQTYICNVNHKPSNTKVDKRVEPKSCDKTGGSEVQLLESGGGLVQPGGSLRLSCAASGFTFTDYAIGWFRQAPGKEREGVSCIRVSDGSTYYADSVKGRFTISRDSSKNTLYLQMNSLRAEDTAVYYCAAGSLYTCVQSIVWPARPYYDMDYWGQGTLVTVSSGGGGSTHTCPPCPAPPVAGPSVFLFPPKPKDTLMISRTPEVTCVVVDVKHEDPEVKFNWYVDGVEVHNAKTKPREEQYNSTYRVVSVLTVLHQDWLNGKEYKCKVSNKALPAPIEKTISKAKGQPREPQVYTLPPCREEMTKNQVSLWCLVKGFYPSDIAVEWESNGQPENNYKTTPPVLDSDGSFFLYSKLTVDKSRWQQGNVFSCSVMHEALHNHYTQKSLSLSPGK
notes: T-cell engager in the CD8/TCR format: 2x LRRC15 Fab, 1x TCR VHH, 1x CD8 VHH; Residue 55 of L-CDR2 is E
B2: TPP-46960 (other)
light: not shown
heavy 1: B1 heavy 1
heavy 2: B1 heavy 2
notes: T-cell engager in the CD8/TCR format: 2x LRRC15 Fab, 1x TCR VHH, 1x CD8 VHH; Residue 55 of L-CDR2 is N
B3: TPP-46958 (other)
light: not shown
heavy 1: B1 heavy 1 with T57A
heavy 2: B1 heavy 2 with T57A
notes: T-cell engager in the CD8/TCR format: 2x LRRC15 Fab, 1x TCR VHH, 1x CD8 VHH
B4: TPP-46956 (other)
light: not shown
heavy 1: B1 heavy 1 with K63N
heavy 2: B1 heavy 2 with K63N
notes: as for B3
B5: TPP-46957 (other)
light: not shown
heavy 1: B1 heavy 1 with K63Q
heavy 2: B1 heavy 2 with K63Q
notes: as for B3
B6: anti-GPC3 Fab (Fab, V domains shown)
VH: QVQLVQSGAEVKKPGASVKVSCKASGYTFTDYEMHWVRQAPGQGLEWMGALDPKTGDTAYSQKFKGRVTLTADKSTSTAYMELSSLTSEDTAVYYCTRFYSYTYWGQGTLVTVSS
VL: DVVMTQSPLSLPVTPGEPASISCRSSQSLVHSNRNTYLHWYLQKPGQSPQLLIYKVSNRFSGVPDRFSGSGSGTDFTLKISRVEAEDVGVYYCSQNTHVPPTFGQGTKLEIK
B7: anti-CD8 VHH (VHH)
VHH: EVQLLESGGGLVQPGGSLRLSCAASGFTFDDYAIGWFRQAPGKEREGVSCIRVSDGSTYYADSVKGRFTISRDNSKNTLYLQMNSLRAEDTAVYYCAAGSLYTCVQSIVWPARPYYDMDYWGQGTLV
notes: also called CD8 VHHb

How the values were obtained:
[1] = molecular target: T1, human EphB6 on transiently transfected …; test: Flow cytometry on Ad293 cells transiently transfected with human EphB6 (off-target binding)
Description: Ad293 cells were transiently transfected with a plasmid expressing human EphB6.

[2] = molecular target: T3, cyno LRRC15 recombinant extracellular domain protein (cyno, UniProt G7NYR2 22-538); test: SPR single-cycle kinetics (Biacore 8K+), TCE captured on Protein G chip, LRRC15 ECD as analyte, 1:1 fit, average of 3 or 4 replicates
T3 construct: extracellular domain; also called LRRC15 cyno
Description: (§1) The fully corrected binding data were globally fitted to a 1:1 binding model to determine the KD using the Biacore™ Insight Evaluation Software (CYTIVA). Coloured sensorgram trace represents the raw data and black line the global 1:1 fit to that data. Values for kinetics parameters is shown in Table 8 are averages for 3 or 4 replicate sets of measurements.

[3] = molecular target: T2, human LRRC15 recombinant extracellular …; test: as above
Description: as §1

[4] = molecular target: T4, soluble recombinant human GPC3 protein (human, UniProt P51654 25-559, biotinylated in the biolayer interferometry assay); test: biolayer interferometry (Octet), biotinylated antigen on streptavidin biosensors
T4 construct: also called GPC3 human
T4 sequence (P51654 25-559 limits assumed): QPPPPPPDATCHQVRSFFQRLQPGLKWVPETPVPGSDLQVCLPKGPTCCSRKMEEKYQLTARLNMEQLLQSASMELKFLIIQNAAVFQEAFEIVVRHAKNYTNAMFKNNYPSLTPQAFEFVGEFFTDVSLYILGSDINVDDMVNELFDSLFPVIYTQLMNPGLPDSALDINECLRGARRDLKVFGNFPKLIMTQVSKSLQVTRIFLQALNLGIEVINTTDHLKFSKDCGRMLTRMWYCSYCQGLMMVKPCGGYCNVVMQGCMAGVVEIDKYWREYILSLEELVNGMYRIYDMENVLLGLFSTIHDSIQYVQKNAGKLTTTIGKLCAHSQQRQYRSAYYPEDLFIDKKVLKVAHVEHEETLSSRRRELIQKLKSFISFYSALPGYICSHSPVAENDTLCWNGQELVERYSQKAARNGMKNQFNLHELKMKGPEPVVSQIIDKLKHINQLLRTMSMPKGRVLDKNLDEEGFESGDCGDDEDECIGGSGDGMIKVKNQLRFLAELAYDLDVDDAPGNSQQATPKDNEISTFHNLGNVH
Method: (§2) Binding kinetics were measured by biolayer interferometry on an OCTET 384 instrument. Streptavidin (SA) biosensors were loaded with biotinylated protein antigens (ACRO Biosystems, Newark, DE) in PBS pH 7.2, 1 mg/mL BSA, 0.05% (v/v) TWEEN (Kinetic buffer). The loaded biosensors were washed in the same buffer before carrying out association and dissociation measurements with various antibodies for the indicated times. Kinetic parameters (Kₒₙ and Koff) and affinities (KD) were calculated from a non-linear fit of the data using the OCTET software v.12.2.1.24.

[5] = molecular target: T5, soluble recombinant human CD8a protein (human, UniProt P01732 22-182, biotinylated); test: biolayer interferometry (Octet RED384), biotinylated antigen on streptavidin biosensors
T5 construct: also called CD8α Human
T5 sequence (P01732 22-182 limits assumed): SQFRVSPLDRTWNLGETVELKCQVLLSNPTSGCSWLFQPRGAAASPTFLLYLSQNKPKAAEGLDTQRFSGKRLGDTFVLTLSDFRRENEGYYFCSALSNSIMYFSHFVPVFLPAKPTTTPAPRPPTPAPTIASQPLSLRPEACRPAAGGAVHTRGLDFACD
Method: as §2

Row | Binder | binding result [1] | Kd [2] [nM] | Kd [3] [nM] | further results
1 | B1 | binds | 3 | 1.34 | 
2 | B2 | binds | 2.24 | 0.98 | 
3 | B3 | binds | 6.4 | 3.1 | 
4 | B4 | binds | 4.8 | 2.24 | 
5 | B5 | binds | 4.55 | 2.27 | 
6 | B6 |  |  |  | Kd [4]: 1.87 nM; koff [4]: 0.000422 s⁻¹; kon [4]: 226000 M⁻¹ s⁻¹
7 | B7 |  |  |  | Kd [5]: 55.3 nM; koff [5]: 0.0286 s⁻¹; kon [5]: 517000 M⁻¹ s⁻¹
